Source: patent publication US20200368361A1 (Regeneron, published 2020)
Positions count from the first letter of the chain named. In names and notes the source's numbering stands.

T1: full length monkey MSR1 on HEK293.mfMSR1 cells (Macaca fascicularis, UniProt A0A2K5UWE2 1-451)
T1 construct: whole, on cells
T1 sequence: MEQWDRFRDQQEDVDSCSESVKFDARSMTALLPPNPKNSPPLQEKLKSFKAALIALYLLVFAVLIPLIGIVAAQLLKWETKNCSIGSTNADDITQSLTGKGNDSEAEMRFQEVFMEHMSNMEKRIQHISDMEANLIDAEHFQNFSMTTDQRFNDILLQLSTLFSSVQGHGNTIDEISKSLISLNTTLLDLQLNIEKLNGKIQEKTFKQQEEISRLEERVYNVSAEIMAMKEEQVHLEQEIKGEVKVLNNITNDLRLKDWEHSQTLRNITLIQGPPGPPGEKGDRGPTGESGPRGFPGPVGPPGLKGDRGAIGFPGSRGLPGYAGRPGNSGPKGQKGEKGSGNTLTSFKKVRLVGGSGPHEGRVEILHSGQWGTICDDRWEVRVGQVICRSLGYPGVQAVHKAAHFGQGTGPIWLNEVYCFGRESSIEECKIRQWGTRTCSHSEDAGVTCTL

T2: full length human MSR1 with a C-terminal Myc tag on HEK293.Myc.hMSR1 cells (human, UniProt P21757 1-451)
T2 construct: whole, on cells
T2 sequence (looked up): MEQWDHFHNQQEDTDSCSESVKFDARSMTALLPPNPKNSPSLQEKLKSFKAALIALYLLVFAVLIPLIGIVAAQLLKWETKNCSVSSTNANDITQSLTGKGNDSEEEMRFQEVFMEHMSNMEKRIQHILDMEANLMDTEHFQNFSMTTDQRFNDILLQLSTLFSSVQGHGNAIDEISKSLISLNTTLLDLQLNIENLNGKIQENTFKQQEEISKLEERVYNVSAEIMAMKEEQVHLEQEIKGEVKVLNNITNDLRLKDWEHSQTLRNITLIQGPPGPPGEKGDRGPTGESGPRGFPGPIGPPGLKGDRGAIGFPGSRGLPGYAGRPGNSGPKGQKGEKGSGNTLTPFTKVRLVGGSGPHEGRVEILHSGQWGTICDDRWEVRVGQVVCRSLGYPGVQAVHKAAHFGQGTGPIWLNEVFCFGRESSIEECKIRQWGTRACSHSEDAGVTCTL

T3: human MSR1 extracellular domain expressed with a N-terminal nonahistidine tag (human, UniProt P21757 77-451)
T3 construct: extracellular domain; Bought reagent; also called His9-hMSR1
T3 sequence: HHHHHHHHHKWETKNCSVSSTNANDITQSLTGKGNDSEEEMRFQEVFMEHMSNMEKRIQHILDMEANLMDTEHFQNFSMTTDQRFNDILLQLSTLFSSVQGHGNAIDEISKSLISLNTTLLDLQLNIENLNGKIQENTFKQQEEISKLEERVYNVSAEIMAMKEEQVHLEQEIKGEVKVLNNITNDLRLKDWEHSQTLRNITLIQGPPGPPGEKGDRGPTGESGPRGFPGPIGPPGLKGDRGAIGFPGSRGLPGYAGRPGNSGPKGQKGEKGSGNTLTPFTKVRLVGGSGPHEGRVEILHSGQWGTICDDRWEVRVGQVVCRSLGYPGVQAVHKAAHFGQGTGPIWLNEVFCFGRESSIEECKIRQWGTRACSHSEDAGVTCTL

T4: monkey MSR1 extracellular domain expressed with a N-terminal hexahistidine-myc-myc tag (monkey (Macaca fascicularis))
T4 construct: also called HMM-mfMSR1
T4 chain: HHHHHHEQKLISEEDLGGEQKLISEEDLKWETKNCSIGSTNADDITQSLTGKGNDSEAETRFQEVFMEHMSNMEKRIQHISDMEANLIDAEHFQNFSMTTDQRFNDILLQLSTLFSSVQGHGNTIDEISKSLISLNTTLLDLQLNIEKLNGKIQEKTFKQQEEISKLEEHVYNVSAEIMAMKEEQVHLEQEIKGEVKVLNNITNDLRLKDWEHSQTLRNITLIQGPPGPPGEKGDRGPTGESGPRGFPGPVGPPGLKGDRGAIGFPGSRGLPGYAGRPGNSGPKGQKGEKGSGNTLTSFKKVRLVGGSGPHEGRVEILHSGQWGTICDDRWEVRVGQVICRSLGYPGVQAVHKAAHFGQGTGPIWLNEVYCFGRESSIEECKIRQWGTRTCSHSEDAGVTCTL

T5: human MSR1 extracellular domain expressed with a N-terminal nonahistidine tag (His9-hMSR1); R&D Systems, Cat … (human, UniProt P21757 77-451)
T5 construct: extracellular domain; Bought protein; also called His-hMSR1
T5 sequence: T3 sequence

T6: monkey MSR1 extracellular domain expressed with a N-terminal hexahistidine-myc-myc tag (HMM-mfMSR1) (monkey (Macaca fascicularis))
T6 chain: T4 chain

B1: H1H21234N (antibody, human IgG1, V domains shown)
VH: QVQLQESGPGLVKPSETLSLTCTVTGGSISRNYWSWIRQPPGKGLEWIGYIYYSGSIDYNPSLKSRVTISVDTSKNQFSLKLSSMTAADTAVYYCARDRWNWKYGMDVWGQGTTVIVSS
VL: EIVLTQSPGTLSLSPGERATLSCRASQTVRNNYLAWYHQKPGQAPRLLIYGASSRATGIPDRFSGSGSGTDFTLTISRLEPEDFTVYYCHQYGNSPWTFGQGTKMEIKR
notes: original human IgG1 Fc
B2: H1H27751P-N297Q (antibody, V domains shown)
VH: EVQLVESGGGLVQPGGSLRLSCAASGFTFSNYAMHWVRQAPGKGLEYVSAISSNGGSTYYADSVKGRITISRDNSKNTLYLQMGSLRAEDMAVYYCARGRPYYYYFGMDVWGQGTTVTVSS
VL: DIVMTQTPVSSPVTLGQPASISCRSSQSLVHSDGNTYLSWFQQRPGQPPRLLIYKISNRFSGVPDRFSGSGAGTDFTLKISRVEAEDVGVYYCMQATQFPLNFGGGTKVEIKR
notes: human IgG1 Fc with N297Q point mutation
B3: H1H27762P-N297Q (antibody, V domains shown)
VH: QVQLVQSGAEVKKPGSSVKVSCKASGGTFSRYDISWVRQAPGQGLEWMGGIIPIFGTSNYAQKFQGRVTITTDESTSTVYMELSSLRSEDTAVYYCARGGRYGWFDPWGQGTLVTVSS
VL: not shown
notes: human IgG1 Fc with N297Q point mutation; also called H1H27762P2-N297Q; H1H27762P2
B4: H1H27734P-N297Q (antibody, V domains shown)
VH: EVQLVESRGGLVQPGGSLRLSCAASGFTFSSYAMSWVRQAPGKGLEWVSAISGSGGSTFYADSVKGRFTISRDNSKNTVYLQMNSLRAEDTAVYYCAKALVLRFLEWLGDYWGQGTLVTVSS
VL: DIQMTQSPSTLSASVGDRVTITCRASQSISSWLAWFQQKPGKAPKLLIYKASSLESGVPSRFSGSGSGTEFTLTISSLQPDDFATYYCQQYKSYWTFGQGTKVEIKR
notes: as for B2
B5: H1H27760P-N297Q (antibody, V domains shown)
VH: EVQLVESGGGLVQPGRSLRLSCAASGFTFDAYAMHWVRQAPGKGLEWVSGISWNSGSIGYADSVKGRFTISRDNAKNSLYLQMNSLREEDTALYYCAKDKILELYYYGMDVWGQGTTVTVSS
VL: not shown
notes: human IgG1 Fc with N297Q point mutation; also called H1H27760P2-N297Q; H1H27760P2
B6: H1H27761P-N297Q (antibody, V domains shown)
VH: EVQLVESGGDLVQPGGSLRLSCSASGFTFNIYAMSWVRQAPGKGLEWVSGISGSGGSTYYADSVKGRFTISRDNSKNTLYFQMNSLRVEDTAVYYCAKKISSSSYYYYAMDVWGQGTTVTVSS
VL: not shown
notes: human IgG1 Fc with N297Q point mutation; also called H1H27761P2-N297Q; H1H27761P2
B7: H1H27729P-N297Q (antibody, V domains shown)
VH: QVQLVESGGGLVKPGGSLRLSCAASGFIFSDYYMSWIRQAPGKGLEWVSYISSSGTTIYGDSVKGRFTMSRDNAKNSLYLQMNSLRAEDTAVYYCARNYALFDYWGQGTLVTVSS
VL: DIQMTQSPSSLSASVGDRVTITCQASQDISKYLNWYQQKPGKAPKLLIYYTSNLETGVPSRFSGSGSGTDFTFTISSLQPEDIATYYCHQSDYLPFTFGPGTKVDIKR
notes: as for B2
B8: H1H27759P-N297Q (antibody, V domains shown)
VH: EVQLVESGGGFVQPGGSLRLSCAASGFTFSSYAMSWVRQAPGKGLEWVSAISGTGSNTYYADSVKGRFTISRDNSKNTLYLQMNSLRAEDTAVYYCAKDRVTTVTYYFDYWGQGTLVTVSS
VL: not shown
notes: human IgG1 Fc with N297Q point mutation; also called H1H27759P2-N297Q; H1xH27759P2
B9: H1H27756P-N297Q (antibody, V domains shown)
VH: QVQLVESGGGVVQPGRSLRLSCAASGFTFSNYDMHWVRQAPGKGLEWMAVISYDGINKYYADSVKGRFTISRDNSKNTLYLQMNSLRAEDTAVYYCAKGTYSWYFDLWGRGTLVTVSS
VL: not shown
notes: as for B2
B10: H1H27766P-N297Q (antibody, V domains shown)
VH: EVQLVESGGGLVQPGGSLRLSCAASGFTFSSFAMSWVRQAPGKELEWVSSISGRGGSTYYADSVRGRFTISRDNSKITLYLQMNSLRAEDTAVYYCAKDIVFRYTSSAYWYFDLWGRGTLVTVSS
VL: not shown
notes: human IgG1 Fc with N297Q point mutation; also called H1H27766P2-N297Q; H1H27766P2
B11: H1H27739P-N297Q (antibody, V domains shown)
VH: EVQLVESGGGLVQPGGSLRLSCTASGFTFSSYAMSWVRQAPGKGLEWVSAISGTGSSTYFTDSVKGRFAISRDNSKNTLYLQMNSLRAEDTAVYYCAKDGEWLSTVTLFDYWGQGTLVTVSS
VL: EIVMTQSPATLSVSPGERATLSCRASQSVSSNLAWYQQKPGQAPRLLIYGASTRATGIPARFSGSGSGTDFTLTISSLQSEDFALYYCQQYFIWPPHPTFGPGTKVDIKR
notes: as for B2
B12: H1H27731P-N297Q (antibody, V domains shown)
VH: QLQLQESGPGLVKPSETLSLTCTVSGGSISRISYYWGWIRQPPGKGLEWIGSIYDSGSTYYNPSLKSRVTISIDTSKNQFSLKLSSVTAADTAVYYCVRYSSSSAFAFDYWGQGTLVTVSS
VL: DIQMTQSPSSVSASVGDRVTITCRASQGISSWLAWYQQKPGKAPKLLIYAASSLQSGVPSRFSGSGSGTDFTLTISSLQPEDFATYYCQQANSFPFTFGPGTKVDIKR
notes: as for B2
B13: H1H27732P-N297Q (antibody, V domains shown)
VH: QLQLQESGPGLVKPSETLSLTCTVSGGSISSSTYYWGWIRQPPGKGLEWIGSFYYSGSTYYNPSLKSRVTISVGTSKNQFSLKLSSVTAADTAVYFCARGGLLGRPFVIWGQGTMVTVSS
VL: DIQMTQSPSSLSASVGDRVTITCRASQGIRNDLGWYQQKPGKAPKRLIYAASSLQSGVPSRFSGSGSGTEFTLTISSLQPEDFATYYCLQHNSYPLTFGGGTKVEIKR
notes: as for B2
B14: H1H21234N-N297Q (antibody, V domains shown)
VH: B1 VH
VL: B1 VL
notes: as for B2
B15: H1H27754P-N297Q (antibody, V domains shown)
VH: EVQLVESGGGLVQPGGSLRLSCAASGFTFRTYAMTWVRQAPGKGLDWVSAITGDGGNTYYADSVKGRFTISRDNSKNTLYLQMNSLRAEDTAIYYCAKDQRFSFALYYFDYWGQGTLVTVSS
VL: B12 VL with K42N, S52F, S93N, F96W, P100Q, D105E
notes: as for B2

target: T1, full length monkey MSR1 on …; assay: ECL cell binding, HEK293.mfMSR1
Description: (§1) All cells were washed once with 1×PBS with Ca²⁺/Mg²⁺ and counted with a Cellometer™ Auto T4 cell counter (Nexcelom Bioscience). Approximately 1.0×10⁴ cells were seeded separately onto 96-well carbon electrode plates [MULTI-ARRAY high bind plate, Meso Scale Diagnostics] and incubated for 1 hour at 37° C. Non-specific binding sites were then blocked by 2% BSA (w/v) in PBS with Ca²⁺/Mg²⁺ for 1 hour at room temperature. THP-1 cells were pre-incubated for 0.5 hours at room temperature in sample dilution buffer with: 1) 1 mg/mL Fc receptor block reagents to block Fc gamma receptors on THP-1 cell surface [whole molecule human IgG (Jackson Immunoresearch, Cat #009-000-003) for wells being tested with anti-MSR1-mFc antibodies or 2) whole molecule mIgG (Jackson Immunoresearch, Cat #015-000-003) for wells being tested with anti-MSR1-hFc antibodies. Antibody binding on HEK293.Myc.hMSR1, HEK293.mfMSR1 and HEK293 cells was tested without Fc receptor block reagents. […] Plates were then washed to remove unbound antibodies an AquaMax2000 plate washer with a cell washing head (MDS Analytical Technologies). […] Plates were washed and developed with Read Buffer (Meso Scale Diagnostics, Cat #R92TD-2) according to manufacturer's recommended procedure and luminescent signals were recorded with a SECTOR Imager 600 (Meso Scale Diagnostics). Luminescence intensity, measured in relative light units (RLU), was recorded to indicate the binding intensity of each antibody at the range of concentrations.

| binding signal ratio to isotype control (11 nM) | Binder |
| --- | --- |
| 31 fold | B1 |

target: T2, full length human MSR1 with a …; assay: ECL cell binding, HEK293.Myc.hMSR1
Description: as §1

| binding signal ratio to isotype control (11 nM) | Binder |
| --- | --- |
| 32 fold | B1 |

target: T3, human MSR1 extracellular domain …; assay: SPR 37C, mAb captured; no dissociation seen, kd fixed
Description: (§2) Binding affinities and kinetic constants of human anti-MSR1 antibodies for different MSR1 reagents were determined by real-time surface plasmon resonance (Biacore 4000). All binding studies were performed in 10 mM HEPES, 150 mM NaCl, 3 mM EDTA, and 0.05% v/v Surfactant Tween-20, pH 7.4 (HBS-ET) running buffer at 25° C. and 37° C.
(§3) The association rate (kₐ) and dissociation rate (kd) were determined by fitting the real-time binding sensorgrams to a 1:1 binding model with mass transport limitation using Scrubber 2.0 c curve-fitting software.

| Kd | Binder |
| --- | --- |
| ≤ 0.0148 nM | B1 |

Target: T4, monkey MSR1 extracellular domain …
Assay: as above
Description: as §2, §3

| Kd | Binder |
| --- | --- |
| ≤ 0.0138 nM | B1 |

target: T5, human MSR1 extracellular domain …; assay: SPR Biacore, 25C, mAb captured by anti-human Fc, MSR1 as analyte;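 also: Half-life of complex dissociation derived from kinetic rates, obtained by fitting Biacore 4000 sensorgrams to a 1:1 model including mass transport, run in HBS-ET buffer at pH 7.4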
Description: as §2, §3

| t½ | Binder |
| --- | --- |
| 38 min | B2 |
| 6 min | B3 |
| 10 min | B4 |
| 13 min | B5 |
| 23 min | B6 |
| 11 min | B7 |
| 9 min | B8 |
| 94 min | B9 |
| 620 min | B10 |
| 11 min | B11 |
| 515 min | B12 |

Target: T6, monkey MSR1 extracellular domain …
Assay: as above
Description: as §2, §3

| t½ | Binder |
| --- | --- |
| 15 min | B2 |
| 6 min | B3 |
| 4 min | B4 |
| 364 min | B13 |
| 16 min | B5 |
| 19 min | B6 |
| 5 min | B7 |
| 13 min | B8 |
| 593 min | B14 |
| 5 min | B9 |
| 145 min | B10 |
| 80 min | B11 |
| 247 min | B12 |
| 657 min | B15 |

target: T5, human MSR1 extracellular domain …; assay: SPR Biacore, 25C, mAb captured by anti-human Fc, MSR1 as analyte; calculated from kd fixed at 1.00E-05
Description: as §2, §3

| t½ | Binder |
| --- | --- |
| 1160 min | B13 |
| 1160 min | B14 |
| 1160 min | B15 |
